Source: IntAct's records for PubMed 29039417

B1: BBSome complex member BBS5 (Homo sapiens), Q8N3I7 (parent)
chain: MSVLDALWEDRDVRFDLSAQQMKTRPGEVLIDCLDSIEDTKGNNGDRGRLLVTNLRILWHSLALSRVNVSVGYNCILNITTRTANSKLRGQTEALYILTKCNSTRFEFIFTNLVPGSPRLFTSVMAVHRAYETSKMYRDFKLRSALIQNKQLRLLPQEHVYDKINGVWNLSSDQGNLGTFFITNVRIVWHANMNDSFNVSIPYLQIRSIKIRDSKFGLALVIESSQQSGGYVLGFKIDPVEKLQESVKEINSLHKVYSASPIFGVDYEMEEKPQPLEALTVEQIQDDVEIDSDGHTDAFVAYFADGNKQQDREPVFSEELGLAIEKLKDGFTLQGLWEVMS
partner: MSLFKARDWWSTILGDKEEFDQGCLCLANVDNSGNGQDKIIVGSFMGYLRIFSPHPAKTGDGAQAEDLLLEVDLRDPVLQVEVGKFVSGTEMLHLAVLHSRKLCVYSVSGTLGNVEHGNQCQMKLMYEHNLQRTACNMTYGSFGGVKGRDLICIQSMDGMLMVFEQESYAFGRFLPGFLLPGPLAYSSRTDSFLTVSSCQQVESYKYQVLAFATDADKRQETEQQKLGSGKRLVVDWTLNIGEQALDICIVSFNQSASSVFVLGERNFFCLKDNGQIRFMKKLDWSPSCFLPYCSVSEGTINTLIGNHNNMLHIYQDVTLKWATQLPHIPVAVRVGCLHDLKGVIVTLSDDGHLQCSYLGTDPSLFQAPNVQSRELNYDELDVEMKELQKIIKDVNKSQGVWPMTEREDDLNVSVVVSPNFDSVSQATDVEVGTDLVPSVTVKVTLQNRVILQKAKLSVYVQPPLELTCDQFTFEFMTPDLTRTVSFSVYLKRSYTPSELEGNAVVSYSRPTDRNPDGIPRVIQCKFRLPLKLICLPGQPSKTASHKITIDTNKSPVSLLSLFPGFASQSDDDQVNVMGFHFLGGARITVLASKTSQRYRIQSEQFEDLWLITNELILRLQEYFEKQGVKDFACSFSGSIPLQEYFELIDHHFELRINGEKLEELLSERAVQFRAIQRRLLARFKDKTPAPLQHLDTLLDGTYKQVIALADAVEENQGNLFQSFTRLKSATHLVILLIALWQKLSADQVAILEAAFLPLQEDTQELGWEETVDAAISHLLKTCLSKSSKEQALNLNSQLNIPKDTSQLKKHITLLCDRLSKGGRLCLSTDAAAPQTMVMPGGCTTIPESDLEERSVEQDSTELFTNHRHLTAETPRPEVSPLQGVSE

Variants of: B1
Conditions: with pthb1_human BBS9, Q3SYG4

Variant	effect of a mutation on the interaction
L320E	with no effect
W8E	with no effect
D12K	disrupting interaction strength
D12E	with no effect
Q205A	with no effect
M22E	disrupting interaction strength
M22A	disrupting interaction strength
E28A	disrupting interaction strength
D46K	with no effect
D46E	with no effect
Q91A	with no effect
D297K	with no effect
P273A	with no effect
Q148K	with no effect
Q310A	with no effect
T111K	with no effect
K23E	with no effect
Y73E	with no effect
Y73K	with no effect
S172A	with no effect
L233A	disrupting interaction strength
V256K	with no effect
K210A	with no effect
P26E	disrupting interaction strength
S196A	with no effect
S196E	with no effect

Variant	effect of a mutation on the interaction
V232A	with no effect
I97A	with no effect
G234E	with no effect
P115A	with no effect
L120K	with no effect
L120A	with no effect
F108K	with no effect
R186K	disrupting interaction strength
Y137K	with no effect
L51K	with no effect
L55F	disrupting interaction strength
S341A	with no effect
S341K	with no effect
P118K	with no effect
P118A	with no effect
G230K	with no effect
L177E	with no effect
L177K	with no effect
V29E	with no effect
R14K	with no effect
L322K	disrupting interaction strength
Q334K	with no effect
Q334E	with no effect
L34E	with no effect
A323K	with no effect
C33K	with no effect

Variant	effect of a mutation on the interaction
S225K	with no effect
S225A	with no effect
R47K	with no effect
Q227E	with no effect
S252E	with no effect
S103A	with no effect
M136K	with no effect
A278E	with no effect
K141A	with no effect
P239K	with no effect
G166E	with no effect
G330A	with no effect
D5E	with no effect
D329A	with no effect
F235A	with no effect
A145K	with no effect
A145T	disrupting interaction strength
A145E	with no effect
D305A	with no effect
P261A	with no effect
F140A	with no effect
F140K	with no effect
E268K	with no effect
A63K	with no effect
T83A	disrupting interaction strength
V71A	with no effect

Variant	effect of a mutation on the interaction
T40E	with no effect
I76A	with no effect
I76T	disrupting interaction strength
Q309E	with no effect
Q226K	with no effect
L146E	with no effect
L152K	with no effect
L58K	disrupting interaction strength
L58E	with no effect
S86A	with no effect
I209K	with no effect
I209A	with no effect
G175A	with no effect
I222A	with no effect
I222K	with no effect
R105K	with no effect
V265K	with no effect
V265E	with no effect
R66K	with no effect
R66A	with no effect
K41E	with no effect
E338K	with no effect
T280A	with no effect
F316A	with no effect
I290A	with no effect
I290E	with no effect

Variant	effect of a mutation on the interaction
S61A	with no effect
S65E	with no effect
S317K	with no effect
Q274A	with no effect
I250K	with no effect
Q174E	with no effect
S123E	with no effect
D287K	with no effect
K135E	with no effect
I206K	with no effect
L243K	with no effect
L243A	with no effect
E241K	with no effect
G42A	with no effect
G42E	disrupting interaction strength
E318K	with no effect
G45K	with no effect
E38K	with no effect
N184K	with no effect
V13A	disrupting interaction strength
V13E	disrupting interaction strength
G321E	with no effect
I182K	disrupting interaction strength
S134A	with no effect
N54A	with no effect
G116K	with no effect

Variant	effect of a mutation on the interaction
D286K	with no effect
D286E	with no effect
A219E	with no effect
S260A	with no effect
S260K	with no effect
K255E	with no effect
F216K	with no effect
M125E	with no effect
M125K	with no effect
M125A	with no effect
E277A	with no effect
V124A	with no effect
D291K	with no effect
V3A	with no effect
L333E	with no effect
L333K	with no effect
R89A	with no effect
Y257A	with no effect
N102A	with no effect
D16E	with no effect
D16K	with no effect
F181K	with no effect
S200E	with no effect
L62E	with no effect
I109K	with no effect
R49K	with no effect

Variant	effect of a mutation on the interaction
Q244E	with no effect
V185K	with no effect
T296E	with no effect
R312K	with no effect
A304K	with no effect
L220A	with no effect
I201A	with no effect
L253E	with no effect
L170E	with no effect
T104E	with no effect
T104I	disrupting interaction strength
G27R	disrupting interaction strength
K272A	with no effect
Y267K	with no effect
T179K	with no effect
D173K	with no effect
L95A	with no effect
G294K	with no effect
V247A	with no effect
D195A	with no effect
N68K	with no effect
P156A	with no effect
